Here are results for two sequences from publication PMC8065639.

The series addresses T1, GST-PA14_51020-His (antitoxin) (Pseudomonas aeruginosa PA14) (UniProt A0A0H2Z7N8).
T1 sequence: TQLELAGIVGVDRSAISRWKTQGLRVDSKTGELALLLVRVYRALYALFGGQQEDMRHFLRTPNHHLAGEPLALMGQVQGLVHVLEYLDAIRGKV
The series is described as follows: EMSA. A general note: Mobility shift assays separate free from complexed probe on a gel.

Turning to “CGGGCTGGAAGGTGGAGCGGGGAATCCGTCTGCAGGCGCCGCCTTTCTCCGATCACGAGGCTGCGCTGACCGACATCGCCGACTACCGCGCTCCCCAGGAACTGGGGAGTGCCATGCGCAGCGCCGGGGTGCAGGCATTCGAATACCGTTCGGCGCGTTGCCCGGAGCGCGGCTGCAATGTCGCCCTGTTCACGCCCGCG (double strand) [PA14_51010 coding region internal fragment]”, the binding entry is “no binding”. Next, “GTTTTTCTCTCTATCACGCCGGTCAATGCTTGCGCGTGGTTCTCTAGGTTCGACCGAATCAAGGTGTGTTTTCAGCAAAATAATGATAGTTTGTTGTAAACACACATGAGGAGGTCGTCATGAGCGCTCTCATCAAGGAACGTCCCAGCGCCGATGCTGTCCTGGCCAAGGCCGTCCTGGCCGCGCGCGAGCAATTGGGG (double strand) [PA14_51020 upstream (operon promoter) fragment]”: “binds”.
